The target of assay [1] is SYNAGIS®. The assay is described as follows: SPR BIAcore 3000, SYNAGIS immobilized via primary amino groups, equilibrium binding of soluble SynBP01.
The target in assay [2] is SYNAGIS®. The assay is described as follows: SPR BIAcore 3000, both injected at 1 µM over immobilized SYNAGIS.

Chain of SYNAGIS® (VH, as listed by the source, chain 1 of 2): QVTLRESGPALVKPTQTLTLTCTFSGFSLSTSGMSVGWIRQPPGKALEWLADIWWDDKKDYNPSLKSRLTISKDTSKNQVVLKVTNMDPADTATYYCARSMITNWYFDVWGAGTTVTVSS
Chain of SYNAGIS® (VL, as listed by the source, chain 2 of 2): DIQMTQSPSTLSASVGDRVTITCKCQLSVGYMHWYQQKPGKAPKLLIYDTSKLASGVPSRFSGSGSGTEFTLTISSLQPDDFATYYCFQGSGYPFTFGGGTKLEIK

B1: SynBP01 (designed binder)
chain: AAIEVKDVTDTTALITWSPPSVLVGYTIELTYGIKDVPGDRTTIDLTEDENQYSIGNLKPDTEYEVSLISVTEFGRRRSKETFTTGGGTLEHHHHHH
Molecule B1 yielded a Kd in assay [1] of 16 µM.

B2: SynBP01-Fc (Fc fusion, not shown: a dimerising Fc or GST)
chain: IEVKDVTDTTALITWSPPSVLVGYTIELTYGIKDVPGDRTTIDLTEDENQYSIGNLKPDTEYEVSLISVTEFGRRRSKETFTT
With B2, in assay [2], the fold increase in total response units compared to SynBP01 worked out at 6 fold.

For the origin of these results see patent US20140141994A1.
